B1: Gamma-crystallin D (Homo sapiens), P07320 (parent)
chain: MGKITLYEDRGFQGRHYECSSDHPNLQPYLSRCNSARVDSGCWMLYEQPNYSGLQYFLRRGDYADHQQWMGLSDSVRSCRLIPHSGSHRIRLYEREDYRGQMIEFTEDCSCLQDRFRFNEIHSLNVLEGSWVLYELSNYRGRQYLLMPGDYRRYQDWGATNARVGSLRRVIDFS
partner: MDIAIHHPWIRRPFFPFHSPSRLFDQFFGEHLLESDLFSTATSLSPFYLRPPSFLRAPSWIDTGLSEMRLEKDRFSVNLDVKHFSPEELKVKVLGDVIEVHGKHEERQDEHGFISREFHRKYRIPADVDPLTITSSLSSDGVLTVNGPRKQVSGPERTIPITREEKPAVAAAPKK
B2: Alpha-crystallin B chain (Mus musculus), P23927 (parent)
chain: B1 partner
B3: Gamma-crystallin D (Homo sapiens), P07320 (parent)
chain: B1 chain
partner: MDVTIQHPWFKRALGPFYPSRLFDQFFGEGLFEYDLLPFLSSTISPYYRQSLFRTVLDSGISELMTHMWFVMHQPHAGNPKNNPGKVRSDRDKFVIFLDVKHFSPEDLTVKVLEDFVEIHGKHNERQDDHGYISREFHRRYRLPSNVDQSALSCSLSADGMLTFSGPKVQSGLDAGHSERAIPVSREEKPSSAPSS

Variants of: B1
Conditions: with cryab_mouse Cryab, P23927
I4F was tested, and the “effect of a mutation on the interaction” value was “increasing interaction”. In the case of V76D, the “effect of a mutation on the interaction” value is reported as “increasing interaction”.

Variants of: B2
Conditions: with crgd_human CRYGD, P07320
With MDIAIHHPWIRRPFFPFHDPSRLFDQFFGEHLLESDLFSTATSLSPFYLRPPSFLRAPSWIDTGLSEMRLEKDRFSVNLDVKHFSPEELKVKVLGDVIEVHGKHEERQDEHGFISREFHRKYRIPADVDPLTITSSLSSDGVLTVNGPRKQVSGPERTIPITREEKPAVAAAPKK the “effect of a mutation on the interaction” value was “increasing interaction”. With MDIAIHHPWIRRPFFPFHSPSRLFDQFFGEHLLESDLFSTATSLDPFYLRPPSFLRAPSWIDTGLSEMRLEKDRFSVNLDVKHFSPEELKVKVLGDVIEVHGKHEERQDEHGFISREFHRKYRIPADVDPLTITSSLSSDGVLTVNGPRKQVSGPERTIPITREEKPAVAAAPKK the “effect of a mutation on the interaction” value was “increasing interaction”. For MDIAIHHPWIRRPFFPFHSPSRLFDQFFGEHLLESDLFSTATSLSPFYLRPPSFLRAPDWIDTGLSEMRLEKDRFSVNLDVKHFSPEELKVKVLGDVIEVHGKHEERQDEHGFISREFHRKYRIPADVDPLTITSSLSSDGVLTVNGPRKQVSGPERTIPITREEKPAVAAAPKK, the “effect of a mutation on the interaction” value was “increasing interaction”.

Variants of: B3
Conditions: with cryaa_rat Cryaa
In the case of I4F, the “effect of a mutation on the interaction” value is reported as “increasing interaction”. V76D was tested, and the “effect of a mutation on the interaction” value was “increasing interaction”.

Source: IntAct's records for PubMed 22289178
